Among the data in publication PMC12810954, “Targeted computational design of an interleukin-7 superkine with enhanced folding efficiency and immunotherapeutic efficacy” (eLife, 2026) are Kd, koff and kon values, retold here.

The assay concerns the target T1, recombinant murine IL-7 receptor alpha (mouse, UniProt P16872 21-239).
T1 construct: interleukin-7 receptor subunit alpha, mouse; Probably the extracellular domain (catalogue product); The SPR methods say only 'recombinant murine IL7Rα' without a supplier; also called IL7Rα; mIL-7Rα; source: bought: Sino Biological; not shown: polyhistidine, C-terminal, kept
T1 sequence (looked up): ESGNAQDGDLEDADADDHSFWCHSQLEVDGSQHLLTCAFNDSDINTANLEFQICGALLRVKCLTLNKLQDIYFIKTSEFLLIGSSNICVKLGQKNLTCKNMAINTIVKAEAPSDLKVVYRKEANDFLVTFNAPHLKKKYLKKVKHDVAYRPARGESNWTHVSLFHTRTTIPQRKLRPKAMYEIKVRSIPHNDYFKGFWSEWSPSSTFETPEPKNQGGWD
Briefly: SPR; murine IL7Rα immobilised on a CM5 chip by amine coupling (Rmax below 30); threefold serial dilutions of WT-IL7 and Neo-7 variants in HBS-EP+ at 50 µL/min, association 180 s, dissociation 600 s; Biacore T200. The following applies: both partners purified. A general note: SPR reads the build-up and loss of mass on a sensor chip optically.

B1: recombinant WT-IL7, E. coli expressed and refolded (ligand, human, UniProt P13232 26-177, looked up)
chain: DCDIEGKDGKQYESVLMVSIDQLLDSMKEIGSNCLNNEFNFFKRHICDANKEGMFLFRAARKLRQFLKMNSTGDFDLHLLKVSEGTTILLNCTGQVKGRKPAALGEAQPTKSLEENKSLKEQKKLNDLCFLKRLLQEIKTCWNKILMGTKEH
notes: interleukin-7, human, wild type; The methods say only that a similar procedure as for Neo-7 was used
Broadly, the Kd is a measure of binding affinity in units of concentration. As usually defined, the koff is the first-order rate constant of dissociation. The kon is the second-order rate constant of association. Regarding B1, the Kd turned out to be 13.4 nM, the koff worked out at 0.0784 s⁻¹ and the kon stood at 5.86e+06 M⁻¹ s⁻¹.
